These results are taken from patent US20180273635A1 (Zymeworks, published 2018).

Residue numbers refer to the chain shown, from its start. Names may count otherwise.

The labels stand for the following.
B1: variant 12480 (antibody, human IgG1, kappa)
heavy: EVQLVESGGGLVQPGGSLRLSCAASGFTFQDYTMDWVRQAPGKGLEWVADVNPNSGGSIYNQRFKGRFTLSVDRSKNTLYLQMNSLRAEDTAVYYCARNLGPSFYFDYWGQGTLVTVSSASTKGPSVFPLAPSSKSTSGGTAALGCLVKDYFPEPVTVSWNSGALTSGVHTFPAVLQSSGLYSLSSVVTVPSSSLGTQTYICNVNHKPSNTKVDKKVEPKSCDKTHTCPPCPAPELLGGPSVFLFPPKPKDTLMISRTPEVTCVVVDVSHEDPEVKFNWYVDGVEVHNAKTKPREEQYNSTYRVVSVLTVLHQDWLNGKEYKCKVSNKALPAPIEKTISKAKGQPREPQVYVYPPSRDELTKNQVSLTCLVKGFYPSDIAVEWESNGQPENNYKTTPPVLDSDGSFALVSKLTVDKSRWQQGNVFSCSVMHEALHNHYTQKSLSLSPG
light: not shown
chain: not shown
notes: OA pertuzumab variant, HC T30Q (Kabat); also called v12480
B2: variant 12490 (antibody, human IgG1, kappa)
heavy: B1 heavy with Q30T, G57Y
light: not shown
chain: not shown
notes: OA pertuzumab variant, HC G56Y (Kabat); also called v12490
B3: variant 12502 (antibody, human IgG1, kappa)
heavy: B1 heavy with Q30T, S75W
light: not shown
chain: not shown
notes: OA pertuzumab variant, HC S74W (Kabat); also called v12502
B4: variant 12514 (antibody, human IgG1, kappa)
heavy: B1 heavy with Q30T, S103W
light: not shown
chain: not shown
notes: OA pertuzumab variant, HC S99W (Kabat); also called v12514
B5: variant 12536 (antibody, human IgG1, kappa)
heavy: B1 heavy with Q30T
light: not shown
chain: not shown
notes: OA pertuzumab variant, LC Y96G (Kabat); also called v12536
B6: variant 12482 (antibody, human IgG1, kappa)
heavy: B1 heavy with Q30F
light: not shown
chain: not shown
notes: OA pertuzumab variant, HC T30F (Kabat); also called v12482
B7: variant 12497 (antibody, human IgG1, kappa)
heavy: B1 heavy with Q30T, Q62R
light: not shown
chain: not shown
notes: OA pertuzumab variant, HC Q61R (Kabat); also called v12497
B8: variant 12506 (antibody, human IgG1, kappa)
heavy: B1 heavy with Q30T, K76W
light: not shown
chain: not shown
notes: OA pertuzumab variant, HC K75W (Kabat); also called v12506
B9: variant 12503 (antibody, human IgG1, kappa)
heavy: B1 heavy with Q30T, S75H
light: not shown
chain: not shown
notes: OA pertuzumab variant, HC S74H (Kabat); also called v12503
B10: variant 12520 (antibody, human IgG1, kappa)
heavy: B1 heavy with Q30R, G57Y
light: not shown
chain: not shown
notes: also called v12520
B11: variant 12505 (antibody, human IgG1, kappa)
heavy: B1 heavy with Q30T, K76E
light: not shown
chain: not shown
notes: OA pertuzumab variant, HC K75E (Kabat); also called v12505
B12: variant 12540 (antibody, human IgG1, kappa)
heavy: B1 heavy with Q30T
light: not shown
chain: not shown
notes: OA pertuzumab variant, LC Y96V (Kabat); also called v12540
B13: variant 12491 (antibody, human IgG1, kappa)
heavy: B1 heavy with Q30T, G57F
light: not shown
chain: not shown
notes: OA pertuzumab variant, HC G56F (Kabat); also called v12491
B14: variant 12504 (antibody, human IgG1, kappa)
heavy: B1 heavy with Q30T, S75A
light: not shown
chain: not shown
notes: OA pertuzumab variant, HC S74A (Kabat); also called v12504
B15: variant 12538 (antibody, human IgG1, kappa)
heavy: B1 heavy with Q30T
light: not shown
chain: not shown
notes: OA pertuzumab variant, LC Y49W (Kabat); also called v12538
B16: variant 12489 (antibody, human IgG1, kappa)
heavy: B1 heavy with Q30T, G57M
light: not shown
chain: not shown
notes: OA pertuzumab variant, HC G56M (Kabat); also called v12489
B17: Variant 12514 (antibody, human IgG1, kappa)
heavy: B1 heavy with Q30T, S103W
light: not shown
chain: not shown
notes: OA (one-armed) format; clones 7852, 1811, 4372; also called v12514
B18: Variant 12480 (antibody, human IgG1, kappa)
heavy: B1 heavy
light: not shown
chain: not shown
notes: OA (one-armed) format; clones 7815, 1811, 4372; also called v12480
B19: Variant 12538 (antibody, human IgG1, kappa)
heavy: B1 heavy with Q30T
light: not shown
chain: not shown
notes: OA (one-armed) format; clones 3057, 7919, 4372; also called v12538
B20: Variant 12505 (antibody, human IgG1, kappa)
heavy: B1 heavy with Q30T, K76E
light: not shown
chain: not shown
notes: OA (one-armed) format; clones 7843, 1811, 4372; also called v12505
B21: Variant 12536 (antibody, human IgG1, kappa)
heavy: B1 heavy with Q30T
light: not shown
chain: not shown
notes: OA (one-armed) format; clones 3057, 7917, 4372; also called v12536
B22: Variant 12490 (antibody, human IgG1, kappa)
heavy: B1 heavy with Q30T, G57Y
light: not shown
chain: not shown
notes: OA (one-armed) format; clones 7825, 1811, 4372; also called v12490
B23: Variant 12506 (antibody, human IgG1, kappa)
heavy: B1 heavy with Q30T, K76W
light: not shown
chain: not shown
notes: OA (one-armed) format; clones 7844, 1811, 4372; also called v12506
B24: Variant 12478 (antibody, human IgG1, kappa)
heavy: B1 heavy with Q30Y
light: not shown
chain: not shown
notes: OA (one-armed) format; clones 7813, 1811, 4372; also called v12478
B25: Variant 12491 (antibody, human IgG1, kappa)
heavy: B1 heavy with Q30T, G57F
light: not shown
chain: not shown
notes: OA (one-armed) format; clones 7826, 1811, 4372; also called v12491
B26: Variant 12502 (antibody, human IgG1, kappa)
heavy: B1 heavy with Q30T, S75W
light: not shown
chain: not shown
notes: OA (one-armed) format; clones 7840, 1811, 4372; also called v12502
B27: Variant 12479 (antibody, human IgG1, kappa)
heavy: B1 heavy with Q30N
light: not shown
chain: not shown
notes: OA (one-armed) format; clones 7814, 1811, 4372; also called v12479
B28: Variant 12482 (antibody, human IgG1, kappa)
heavy: B1 heavy with Q30F
light: not shown
chain: not shown
notes: OA (one-armed) format; clones 7817, 1811, 4372; also called v12482
B29: Variant 12610 (antibody, human IgG1, kappa)
heavy: B1 heavy with Q30A
light: not shown
chain: not shown
notes: OA (one-armed) format; clones 3376, 1811, 4372; also called v12610

One test has as its target T1, Recombinant human HER2 (human, UniProt P04626 23-652).
T1 construct: extracellular domain; analyte of the SPR assays; also called HER2 ECD; ECD2 of HER2
The test can be described thus: SPR, pre-SEC; ratio to WT v10013.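 Note: SPR on Biacore T200 at 25 °C, constructs captured via anti-human Fc on CM5 chip, HER2 ECD as analyte, 1:1 Langmuir global fit, after protein A purification.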 On the technique in general: In SPR one partner is held on a chip, and binding of the other changes the refractive index at the surface.
Description: (§1) The affinity towards HER2 ECD of the samples was measured by SPR on a Biacore T200 as follows. Between 2000 and 4000 RU of anti-human Fc injected at concentration between 5 and 10 μg/ml was immobilized on a CM5 chip using standard amine coupling. Antigen-binding constructs were captured on the anti-human Fc (injected at concentration at 0.51 microg/mL in PBST, 1 min at 10 microl/min) at response levels ranging from 120-270 RU. […] HER2 dilutions were analyzed in duplicates. Sensograms were fit globally to a 1: 1 Langmuir binding model, using the software provided with the Biacore T200. All experiments were conducted at 25° C.
(§2) The affinity of antigen-binding constructs in OA format was determined by SPR following protein A purification. […] Antigen-binding constructs in FSA format were purified by protein A affinity and SEC prior to assessment of affinity by SPR.
B1: the “Ka, mut/Ka, WT” value came out at 4.6.
As for B2, the “Ka, mut/Ka, WT” value was found to be 2.5.
As to B3, the “Ka, mut/Ka, WT” value was determined as 8.2.
Same read-out and setting: to B4 belongs 5.8; to B5, 4.1.
Same read-out and setting: to B6 belongs 2.5; to B7, 1.4; to B8, 30.6.
Consider B9, for which the “Ka, mut/Ka, WT” value came out at 1.3.
For B10, the “Ka, mut/Ka, WT” value was found to be 3.6.
As for B11, the “Ka, mut/Ka, WT” value is 4.2.
The same measure, in the same setting: the value for B12 was 1.6; that for B13 was 2.1; that for B14 was 1.1.
Still for that read-out and setting: the value for B15 was 4.2; that for B16 was 1.4.

The target in another test is T2, Recombinant human HER2 (human, UniProt P04626 23-652).
T2 construct: extracellular domain; Analyte of the SPR assays; also called HER2 ECD; ECD2 of HER2
The test can be described thus: SPR post-SEC (value taken over from Table 5); Ka ratio to WT v10013.
Description: as §1, §2
B17: the “Ka, mut/Ka, WT” value was determined as 4.5 fold.
B18: the “Ka, mut/Ka, WT” value is 4.7 fold.
Same read-out and setting: the value for B19 was 4.8 fold; that for B20 was 3.7 fold; that for B21 was 4 fold.
Turning to B22, the “Ka, mut/Ka, WT” value was found to be 2.7 fold.
Same read-out and setting: to B23 belongs 30.6 fold; to B24, 3.6 fold; to B25, 2.1 fold.
Same read-out and setting: to B26 belongs 5.3 fold; to B27, 4.7 fold; to B28, 2.9 fold.
Take B29: the “Ka, mut/Ka, WT” value stood at 4.5 fold.

The next test deals with T1, Recombinant human HER2. The test can be described thus: SPR, post-SEC; ratio to WT v10013.
Description: as §1, §2
Consider B1, for which the “Ka, mut/Ka, WT” value was found to be 4.7.
Regarding B2, the “Ka, mut/Ka, WT” value came out at 2.7.
Still for that read-out and setting: the value for B3 was 5.3; that for B4 was 4.5.
The same measure, in the same setting: the value for B5 was 4.
Turning to B6, the “Ka, mut/Ka, WT” value came out at 2.9.
As to B7, the “Ka, mut/Ka, WT” value was 1.6.
On to B8, for which the “Ka, mut/Ka, WT” value turned out to be 30.6.
As to B9, the “Ka, mut/Ka, WT” value came out at 0.8.
Regarding B10, the “Ka, mut/Ka, WT” value stood at 3.1.
B11: the “Ka, mut/Ka, WT” value stood at 3.7.
The same measure, in the same setting: the value for B12 was 1.9; that for B13 was 2.1; that for B14 was 0.8.
B15: the “Ka, mut/Ka, WT” value came to 4.8.
B16: the “Ka, mut/Ka, WT” value stood at 1.6.

A further test addresses T1, Recombinant human HER2. The test can be described thus: SPR, variant captured on anti-human Fc, HER2 flowed, 25 C, post-SEC.
Description: as §1, §2
With B1, the Kd – broadly, the equilibrium constant for the complex coming apart – was determined as 4.4 nM.
As for B2, the Kd was found to be 7.8 nM.
Consider B3, for which the Kd is 3.9 nM.
The same measure, in the same setting: to B4 belongs 4.6 nM; to B5, 5.2 nM.
Same read-out and setting: the value for B6 was 7.3 nM; that for B7 was 13 nM.
Still for that read-out and setting: the value for B8 was 0.68 nM; that for B9 was 25 nM.
Take B10: the Kd was determined as 6.6 nM.
Take B11: the Kd was 5.7 nM.
As to B12, the Kd came out at 11 nM.
With B13, the Kd turned out to be 10 nM.
For B14, the Kd is 27 nM.
The same measure, in the same setting: to B15 belongs 4.4 nM; to B16, 13 nM.

The target of another test is T2, Recombinant human HER2. The test can be described thus: calculated from the SPR Ka ratio to WT, -RTln(Ka,mut/Ka,WT), 298 K.
As to B17, the ΔΔG was -0.9 kcal/mol.
On the same count and under the same terms, to B18 belongs -0.9 kcal/mol.
The same measure, in the same setting: the value for B19 was -0.9 kcal/mol.
On the same count and under the same terms, the value for B20 was -0.8 kcal/mol; that for B21 was -0.8 kcal/mol; that for B22 was -0.6 kcal/mol.
For the molecule B23, the ΔΔG is -2 kcal/mol.
The same measure, in the same setting: to B24 belongs -0.8 kcal/mol; to B25, -0.4 kcal/mol.
On the same count and under the same terms, the value for B26 was -1 kcal/mol; that for B27 was -0.9 kcal/mol; that for B28 was -0.6 kcal/mol.
On the same count and under the same terms, the value for B29 was -0.9 kcal/mol.

The next test addresses T1, Recombinant human HER2. The test can be described thus: SPR, variant captured on anti-human Fc, HER2 flowed, 25 C, pre-SEC.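 Note: HER2 extracellular domain binding on Biacore T200, CM5 chip with amine-coupled anti-human Fc, duplicate antigen dilutions, global 1:1 Langmuir fit, measured after protein A purification.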
Description: as §1, §2
Turning to B1, the Kd was determined as 4.2 nM.
Still for that read-out and setting: to B2 belongs 7.7 nM; to B3, 2.4 nM; to B4, 3.4 nM.
B5: the Kd amounted to 4.8 nM.
The same measure, in the same setting: to B6 belongs 7.7 nM.
Still for that read-out and setting: to B7 belongs 14 nM.
Consider B8, for which the dissociation constant (Kd) is 0.64 nM.
Same read-out and setting: to B9 belongs 15 nM; to B10, 5.4 nM.
Regarding B11, the Kd was found to be 4.6 nM.
On the same count and under the same terms, the value for B12 was 12 nM; that for B13 was 9.1 nM; that for B14 was 18 nM.
As to B15, the Kd stood at 4.7 nM.
In the case of B16, the Kd was determined as 14 nM.
